Three molecules from patent US7125658B2, “Small protein that interacts with a ribonucleotide reductase subunit and uses thereof” (The Trustees of Columbia University in the City of New York, priority 1998, dated 2006) can be followed below.

B1: GBD-Sml1 two-hybrid fusion (plasmid pWJ728) (other)
chain: MKLLSSIEQACDICRLKKLKCSKEKPKCAKCLKNNWECRYSPKTKRSPLTRAHLTEVESRLERLEQLFLLIFPREDLDMILKMDSLQDIKALLTGLFVQDNVNKDAVTDRLASVETDMPLTLRQHRISATSSSEESSNKGQRQLTVSMQNSQDYFYAQNRCQQQQAPSTLRTVTMAEFRRVPLPPMAEVPMLSTQNSMGSSASASASSLEMWEKDLEERLNSIDHDMNNNKFGSGELKSMFNQGKVEEMDF
notes: also called GBD fusion SML1
B2: GAD-Sml1 two-hybrid fusion (plasmid pWJ684, pACTII) (other, not shown: large carriers)
chain: MQNSQDYFYAQNRCQQQQAPSTLRTVTMAEFRRVPLPPMAEVPMLSTQNSMGSSASASASSLEMWEKDLEERLNSIDHDMNNNKFGSGELKSMFNQGKVEEMDF
B3: GBD-Rnr2 two-hybrid fusion (plasmid pWJ729) (other, UniProt P04386 1-147, looked up)
chain: MKLLSSIEQACDICRLKKLKCSKEKPKCAKCLKNNWECRYSPKTKRSPLTRAHLTEVESRLERLEQLFLLIFPREDLDMILKMDSLQDIKALLTGLFVQDNVNKDAVTDRLASVETDMPLTLRQHRISATSSSEESSNKGQRQLTVSMPKETPSKAAADALSDLEIKDSKSNLNKELETLREENRVKSDMLKEKLSKDAENHKAYLKSHQVHRHKLKEMEKEEPLLNEDKERTVLFPIKYHEIWQAYKRAEASFWTAEEIDLSKDIHDWNNRMNENERFFISRVLAFFAASDGIVNENLVENFSTEVQIPEAKSFYGFQIMIENIHSETYSLLIDTYIKDPKESEFLFNAIHTIPEIGEKAEWALRWIQDADALFGERLVAFASIEGVFFSGSFASIFWLKKRGMMPGLTFSNELICRDEGLHTDFACLLFAHLKNKPDPAIVEKIVTEAVEIEQRYFLDALPVALLGMNADLMNQYVEFVADRLLVAFGNKKYYKVENPFDFMENISLAGKTNFFEKRVSDYQKAGVMSKSTKQEAGAFTFNEDF

The target of assay [1] is B2. Briefly: cell-based or functional assay.
For assay [2], the target named is T1, GAD-Rnr1 two-hybrid fusion (plasmid pWJ745) (yeast (Saccharomyces cerevisiae), UniProt P21524 1-888).
T1 sequence (looked up): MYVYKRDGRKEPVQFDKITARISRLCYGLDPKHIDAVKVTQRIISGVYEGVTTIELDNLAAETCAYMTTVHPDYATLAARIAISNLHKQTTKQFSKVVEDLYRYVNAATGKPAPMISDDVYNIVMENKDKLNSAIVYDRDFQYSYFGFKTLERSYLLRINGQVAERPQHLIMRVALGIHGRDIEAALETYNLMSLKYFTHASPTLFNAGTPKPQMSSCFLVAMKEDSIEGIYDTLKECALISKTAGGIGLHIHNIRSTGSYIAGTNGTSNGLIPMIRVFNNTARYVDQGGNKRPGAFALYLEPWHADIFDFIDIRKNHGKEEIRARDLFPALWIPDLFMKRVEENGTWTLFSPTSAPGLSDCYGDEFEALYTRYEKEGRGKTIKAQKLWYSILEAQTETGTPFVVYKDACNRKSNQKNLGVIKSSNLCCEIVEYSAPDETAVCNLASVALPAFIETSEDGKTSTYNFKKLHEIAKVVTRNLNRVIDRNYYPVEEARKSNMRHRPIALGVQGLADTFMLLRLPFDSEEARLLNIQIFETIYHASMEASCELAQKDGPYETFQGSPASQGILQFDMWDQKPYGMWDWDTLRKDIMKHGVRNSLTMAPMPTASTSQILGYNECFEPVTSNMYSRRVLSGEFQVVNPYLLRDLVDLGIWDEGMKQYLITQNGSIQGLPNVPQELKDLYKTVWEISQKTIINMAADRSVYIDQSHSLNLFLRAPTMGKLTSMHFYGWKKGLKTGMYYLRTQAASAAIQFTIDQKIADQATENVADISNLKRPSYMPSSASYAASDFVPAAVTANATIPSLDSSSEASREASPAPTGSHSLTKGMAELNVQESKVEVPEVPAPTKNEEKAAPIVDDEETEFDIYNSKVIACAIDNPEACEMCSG
Nature of the assay: cell-based or functional assay.

The target in assay [3] is T2, GAD (Gal4 activation domain alone, empty vector control) (UniProt P04386 768-881).
T2 sequence (looked up): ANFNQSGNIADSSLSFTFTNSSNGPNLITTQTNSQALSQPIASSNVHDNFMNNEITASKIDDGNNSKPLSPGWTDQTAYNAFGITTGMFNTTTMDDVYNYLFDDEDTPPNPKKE
Nature of the assay: cell-based or functional assay.

In assay [4] the target is T3, GAD-Rnr2 two-hybrid fusion (plasmid pWJ746) (yeast (Saccharomyces cerevisiae), UniProt P09938 1-399).
T3 construct: Whole RNR2 ORF as cloned
T3 sequence (looked up): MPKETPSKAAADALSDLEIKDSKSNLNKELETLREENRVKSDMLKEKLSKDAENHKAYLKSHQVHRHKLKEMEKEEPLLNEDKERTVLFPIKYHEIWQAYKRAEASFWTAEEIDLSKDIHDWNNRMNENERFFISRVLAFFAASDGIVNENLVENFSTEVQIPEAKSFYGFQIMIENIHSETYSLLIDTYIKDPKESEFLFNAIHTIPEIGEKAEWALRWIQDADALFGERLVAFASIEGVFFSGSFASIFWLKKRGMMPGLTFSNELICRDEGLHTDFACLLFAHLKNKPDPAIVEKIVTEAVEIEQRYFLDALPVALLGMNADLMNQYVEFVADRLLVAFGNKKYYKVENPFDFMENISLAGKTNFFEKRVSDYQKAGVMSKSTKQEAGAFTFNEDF
Nature of the assay: yeast two-hybrid, GBD-Sml1 with GAD-Rnr2. The source says: (§1) We next tested the possibility that Sml1 interacts with the subunit(s) of RNR since such interactions may provide a regulatory mechanism to inhibit RNR activity. […] In addition, Rnr1 and Rnr2 each interacts with itself, however these interactions are much weaker than the interaction between Sml1 and Rnr1 (Table 2).
(§2) The strains and plasmids for two-hybrid analysis were PJ69-4A, pGBD-C2, pGAD-C2 (James et al., 1996) and pACTII (CLONTECH® Inc.). The primer pair pB-SML1 5' (SEQ ID NO: 11) and pGBD-SML1 3' (SEQ ID NO: 13) (Table 4) was used to amplify the SML1 ORF. After digestion with BamHI and PstI, this PCR product was cloned into the BamHI-PstI sites of pGBD-C2 to construct plasmid pWJ728. Similarly, plasmid pWJ684 contains a BamHI fragment from the PCR product of the SML1 ORF generated using the primer pair pB-SML1 5' and pB-SML1 3' (SEQ ID NO: 12) (Table 4) and inserted at the BamHI site of pACTII. PCR fragments containing the RNR1 or the RNR2 ORF were generated by primer pairs RNR1-ORF 5' (SEQ ID NO: 14) and RNR1 3' (SEQ ID NO: 15) or RNR2-ORF 5' (SEQ ID NO: 17) and RNR2 3' (SEQ ID NO: 16) (Table 4). These fragments were cloned into the BamHI-PstI site of pGBD-C2 and pGAD-C2 to construct pWJ731 and pWJ745 or pWJ729 and pWJ746 respectively.
(§3) The GAL1-HIS3 reporter was assayed on SC-HIS-LEU-TRP medium plus 1-2 mM 3-aminotriazole. […]

The target in assay [5] is B3. Briefly: yeast two-hybrid, GAD-Sml1 with GBD-Rnr2.
Source text: as §1, §2, §3

The target of assay [6] is T3, GAD-Rnr2 two-hybrid fusion (plasmid …). Nature of the assay: cell-based or functional assay.

Regarding B1, the “two-hybrid LacZ activity” value in assay [1] stood at 3.3 Miller Units; in assay [2], 31 Miller Units; in assay [3] it was 4 Miller Units. Moreover, the binding result in assay [4] is given as “no binding”.
Consider B2, for which, in assay [5], the binding result was “no binding”.
B3: the results for the “two-hybrid LacZ activity” value in assay [1], in assay [6] and in assay [3] were 0.9 Miller Units, 2.3 Miller Units and 1.4 Miller Units, respectively.
